Results taken from article PMC12687424, “Penetrant PKCβ mutation in ATLL displays a mixed gain-of-function” (Biochemical Journal, 2025).
FAM = fluorescein label

Experiments:
[1] = target: T1, D427N PKCβII catalytic domain (UniProt P05771-2 321-673, D427N, phosphorylated at T500 and at the other two PKC priming sites in the C-terminal tail); test: fluorescence polarisation; PKCβII catalytic domain titrated into 280 nM fluorescein-PSS peptide in a cuvette; 20°C; 50 mM Tris-HCl pH 7.5, 150 mM NaCl, 5 mM MgCl2, 0.05% Brij-35, 500 μM AMP-PCP, 5% glycerol; anisotropy fitted assuming a 1:1 interaction; settings: both partners purified
T1 construct: D427N is a somatic mutation found in ATLL patients; source: SF21 cells (baculovirus), purified (Glutathione-Sepharose, His-TEV cleavage, Superdex 200); not shown: GST, N-terminal, cleaved
T1 sequence (P05771 other isoform, or with tags, fused parts or gaps D427N | D427N | D427N D427N): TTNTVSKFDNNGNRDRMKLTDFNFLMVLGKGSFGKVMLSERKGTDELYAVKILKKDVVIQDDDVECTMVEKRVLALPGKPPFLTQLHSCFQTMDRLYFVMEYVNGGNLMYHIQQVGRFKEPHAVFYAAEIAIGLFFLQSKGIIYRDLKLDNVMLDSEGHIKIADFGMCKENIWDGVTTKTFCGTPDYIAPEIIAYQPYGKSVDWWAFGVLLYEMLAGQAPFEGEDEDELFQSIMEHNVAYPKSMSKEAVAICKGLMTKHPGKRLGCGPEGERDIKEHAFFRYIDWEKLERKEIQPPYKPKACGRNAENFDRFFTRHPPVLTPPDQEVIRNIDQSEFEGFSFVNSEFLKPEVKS

[2] = target: T2, WT PKCβII catalytic domain (UniProt P05771-2 321-673, primed (phosphorylated) at the three PKC priming sites (T-loop, turn motif, hydrophobic motif)); test: as above; settings: both partners purified
T2 construct: Protein kinase C beta, isoform PKCβII, catalytic domain released by TEV cleavage from GST-(3C)-PKCβII that carries a TEV site at position 321; Plasmids for WT PKCβI and PKCβII came from the laboratory archive; also called protein kinase C beta II catalytic domain; PKCβII kinase domain; source: SF21 cells (baculovirus), purified (Glutathione-Sepharose, His-TEV cleavage, Superdex 200); not shown: …
T2 sequence (P05771 other isoform, or with tags, fused parts or gaps): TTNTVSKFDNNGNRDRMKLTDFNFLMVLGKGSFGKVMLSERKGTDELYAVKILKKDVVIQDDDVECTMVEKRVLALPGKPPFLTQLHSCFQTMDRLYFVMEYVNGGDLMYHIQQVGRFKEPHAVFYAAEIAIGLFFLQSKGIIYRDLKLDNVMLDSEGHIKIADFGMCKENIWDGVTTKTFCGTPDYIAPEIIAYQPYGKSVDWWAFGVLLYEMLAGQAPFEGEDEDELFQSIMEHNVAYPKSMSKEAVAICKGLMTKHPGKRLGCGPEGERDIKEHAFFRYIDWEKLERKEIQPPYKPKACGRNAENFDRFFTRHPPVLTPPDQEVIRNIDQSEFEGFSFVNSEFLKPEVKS

B1: Fluorescein-PSS peptide (peptide)
peptide: {FAM}-ESTVRFARKGSLRQKNVH-NH2
notes: source: synthetic peptide (HPLC purified to >95%)
Kd [1]: 72 µM
Kd [2]: 35.3 µM
